Measurements taken from article PMC9248843, “Structural and biophysical studies of new L-asparaginase variants: lessons from random mutagenesis of the prototypic Escherichia coli Ntn-amidohydrolase” (Acta Crystallographica. Section D, Structural Biology, 2022).

T1: EcAIII α subunit (∼20 kDa) (Escherichia coli, UniProt P37595 1-178)
T1 construct: EcAIII of Escherichia coli, α subunit: cut product of the precursor up to the scissile bond Gly178-Thr179; the linker is partly degraded, residues 158-178 are not visible in the structures; also called subunit α; source: E. coli BL21 Gold, purified (DEAE-Sepharose, SEC); formed by autocleavage of the precursor
T1 sequence (looked up): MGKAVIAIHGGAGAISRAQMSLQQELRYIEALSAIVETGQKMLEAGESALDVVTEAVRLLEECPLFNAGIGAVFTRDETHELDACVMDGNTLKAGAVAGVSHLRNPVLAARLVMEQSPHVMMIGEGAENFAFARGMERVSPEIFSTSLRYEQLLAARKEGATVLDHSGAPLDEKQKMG


How the values were obtained:
[1] = target: the molecule itself; test: SEC; SEC profiles of Supplementary Fig. S4; before biophysical measurements proteins were run on Superdex 75 10/300 GL in 20 mM phosphate buffer pH 7.5
[2] = target: the molecule itself; test: crystal structure; hanging-drop vapor diffusion at 20°C; 20–30% PEG 4000 or PEG 6000, 0.2 M MgCl2, 100 mM Tris–HCl pH 8.5; protein 10–15 mg/ml; space group P212121
[3] = target: T1, EcAIII α subunit (∼20 kDa); test: as above; settings: both partners purified

Row | Binder | binding result [2] | other results
1 | EcAIII variant RDM1-43, unprocessed immature precursor (enzyme, Escherichia coli, UniProt P37595 1-321, looked up, EcAIII of Escherichia coli, uncleaved immature precursor (α and β on one chain, linker intact), with the substitutions of RDM1-43 (Ser211 kept); No ability to process into α/β subunits; EcAIII gene in pET-11d; source: E. coli BL21 Gold, purified (DEAE-Sepharose, SEC)) MGKAVIAIHGGAGAISRAQMSLQQELRYIEALSAIVETGQKMLEAGESALDVVTEAVRLLEECPLFNAGIGAVFTRDETHELDACVMDGNTLKAGAVAGVSHLRNPVLAARLVMEQSPHVMMIGEGAENFAFARGMERVSPEIFSTSLRYEQLLAARKEGATVLDHSGAPLDEKQKMGTVGAVALDLDGNLAAATSTGGMTNKLPVGVGSSPLVGAGCYANNASVAVSCTGTGEVFIRALAAYDIAALMDYGGLSLAEACERVVMEKLPALGGSGGLIAIDHEGNVALPFNTEGMYRAWGYAGDTPTTGIYREKGDTVATQ |  | binding result [1]: binds
2 | EcAIII variant RDM1-46, unprocessed immature precursor (enzyme, Escherichia coli, UniProt P37595 1-321, looked up, EcAIII of Escherichia coli, uncleaved immature precursor (α and β on one chain, linker intact), with the substitutions of RDM1-46 (Ser211 kept); No ability to process into α/β subunits; EcAIII gene in pET-11d; source: E. coli BL21 Gold, purified (DEAE-Sepharose, SEC)) MGKAVIAIHGGAGAISRAQMSLQQELRYIEALSAIVETGQKMLEAGESALDVVTEAVRLLEECPLFNAGIGAVFTRDETHELDACVMDGNTLKAGAVAGVSHLRNPVLAARLVMEQSPHVMMIGEGAENFAFARGMERVSPEIFSTSLRYEQLLAARKEGATVLDHSGAPLDEKQKMGTVGAVALDLDGNLAAATSTGGMTNKLPLDVGLSPLVGAGCYANNASVAVSCTGTGEVFIRALAAYDIAALMDYGGLSLAEACERVVMEKLPALGGSGGLIAIDHEGNVALPFNTEGMYRAWGYAGDTPTTGIYREKGDTVATQ |  | binding result [1]: binds
3 | wild-type EcAIII, mature (αβ)2 heterotetramer (class 2 L-asparaginase of Escherichia coli) (complex, EcAIII of Escherichia coli, α subunit: cut product of the precursor up to the scissile bond Gly178-Thr179; the linker is partly degraded, residues 158-178 are not visible in the structures; EcAIII of Escherichia coli, β subunit: cut product of the precursor beginning at the nucleophilic Thr179; Gene in pET-11d; no tag is mentioned; Dimer of two αβ heterodimers formed by autocleavage of the …) chain 1: MGKAVIAIHGGAGAISRAQMSLQQELRYIEALSAIVETGQKMLEAGESALDVVTEAVRLLEECPLFNAGIGAVFTRDETHELDACVMDGNTLKAGAVAGVSHLRNPVLAARLVMEQSPHVMMIGEGAENFAFARGMERVSPEIFSTSLRYEQLLAARKEGATVLDHSGAPLDEKQKMG chain 2: TVGAVALDLDGNLAAATSTGGMTNKLPGRVGDSPLVGAGCYANNASVAVSCTGTGEVFIRALAAYDIAALMDYGGLSLAEACERVVMEKLPALGGSGGLIAIDHEGNVALPFNTEGMYRAWGYAGDTPTTGIYREKGDTVATQ | binds | 
4 | EcAIII β subunit (∼15 kDa), wild type (domain or fragment, Escherichia coli, UniProt P37595 179-321, looked up, EcAIII of Escherichia coli, β subunit: cut product of the precursor beginning at the nucleophilic Thr179; also called subunit β; source: E. coli BL21 Gold, purified (DEAE-Sepharose, SEC); formed by autocleavage of the precursor) TVGAVALDLDGNLAAATSTGGMTNKLPGRVGDSPLVGAGCYANNASVAVSCTGTGEVFIRALAAYDIAALMDYGGLSLAEACERVVMEKLPALGGSGGLIAIDHEGNVALPFNTEGMYRAWGYAGDTPTTGIYREKGDTVATQ |  | binding result [3]: binds
5 | EcAIII variant RDM1-18, mature (processed into α/β subunits) (complex, Escherichia coli, EcAIII of Escherichia coli, α subunit: cut product up to the scissile bond Gly178-Thr179; residues 158-178 not visible in the structure; source: E. coli BL21 Gold, purified (DEAE-Sepharose, SEC); copies: 2 + 2) chain 1: MGKAVIAIHGGAGAISRAQMSLQQELRYIEALSAIVETGQKMLEAGESALDVVTEAVRLLEECPLFNAGIGAVFTRDETHELDACVMDGNTLKAGAVAGVSHLRNPVLAARLVMEQSPHVMMIGEGAENFAFARGMERVSPEIFSTSLRYEQLLAARKEGATVLDHSGAPLDEKQKMG chain 2: TVGAVALDLDGNLAAATSTGGMTNKLPGVVGPWPLVGAGCYANNASVAVSCTGTGEVFIRALAAYDIAALMDYGGLSLAEACERVVMEKLPALGGSGGLIAIDHEGNVALPFNTEGMYRAWGYAGDTPTTGIYREKGDTVATQ | binds | 
6 | EcAIII variant RDM1-38, mature (processed into α/β subunits) (complex, Escherichia coli, EcAIII of Escherichia coli, α subunit: cut product up to the scissile bond Gly178-Thr179; residues 158-178 not visible in the structure; EcAIII of Escherichia coli, β subunit beginning at Thr179, with the substitutions of RDM1-38; source: E. coli BL21 Gold, purified (DEAE-Sepharose, SEC); copies: 2 + 2) chain 1: MGKAVIAIHGGAGAISRAQMSLQQELRYIEALSAIVETGQKMLEAGESALDVVTEAVRLLEECPLFNAGIGAVFTRDETHELDACVMDGNTLKAGAVAGVSHLRNPVLAARLVMEQSPHVMMIGEGAENFAFARGMERVSPEIFSTSLRYEQLLAARKEGATVLDHSGAPLDEKQKMG chain 2: TVGAVALDLDGNLAAATSTGGMTNKLPGCVGSVPLVGAGCYANNASVAVSCTGTGEVFIRALAAYDIAALMDYGGLSLAEACERVVMEKLPALGGSGGLIAIDHEGNVALPFNTEGMYRAWGYAGDTPTTGIYREKGDTVATQ | binds | 
7 | EcAIII variant RDM1-37, mature (processed into α/β subunits) (complex, Escherichia coli, EcAIII of Escherichia coli, α subunit: cut product up to the scissile bond Gly178-Thr179; residues 158-178 not visible in the structure; EcAIII of Escherichia coli, β subunit beginning at Thr179, with the substitutions of RDM1-37 (Ser211 kept); source: E. coli BL21 Gold, purified (DEAE-Sepharose, SEC); copies: 2 + 2) chain 1: MGKAVIAIHGGAGAISRAQMSLQQELRYIEALSAIVETGQKMLEAGESALDVVTEAVRLLEECPLFNAGIGAVFTRDETHELDACVMDGNTLKAGAVAGVSHLRNPVLAARLVMEQSPHVMMIGEGAENFAFARGMERVSPEIFSTSLRYEQLLAARKEGATVLDHSGAPLDEKQKMG chain 2: TVGAVALDLDGNLAAATSTGGMTNKLPSTVGSSPLVGAGCYANNASVAVSCTGTGEVFIRALAAYDIAALMDYGGLSLAEACERVVMEKLPALGGSGGLIAIDHEGNVALPFNTEGMYRAWGYAGDTPTTGIYREKGDTVATQ | binds | 
8 | EcAIII variant RDM1-24, mature (processed into α/β subunits) (complex, Escherichia coli, EcAIII of Escherichia coli, α subunit: cut product up to the scissile bond Gly178-Thr179; residues 158-178 not visible in the structure; EcAIII of Escherichia coli, β subunit beginning at Thr179, with the substitutions of RDM1-24; source: E. coli BL21 Gold, purified (DEAE-Sepharose, SEC); copies: 2 + 2) chain 1: MGKAVIAIHGGAGAISRAQMSLQQELRYIEALSAIVETGQKMLEAGESALDVVTEAVRLLEECPLFNAGIGAVFTRDETHELDACVMDGNTLKAGAVAGVSHLRNPVLAARLVMEQSPHVMMIGEGAENFAFARGMERVSPEIFSTSLRYEQLLAARKEGATVLDHSGAPLDEKQKMG chain 2: TVGAVALDLDGNLAAATSTGGMTNKLPGAVGSTPLVGAGCYANNASVAVSCTGTGEVFIRALAAYDIAALMDYGGLSLAEACERVVMEKLPALGGSGGLIAIDHEGNVALPFNTEGMYRAWGYAGDTPTTGIYREKGDTVATQ | binds | 
9 | EcAIII variant RDM1-29, mature (processed into α/β subunits) (complex, Escherichia coli, EcAIII of Escherichia coli, α subunit: cut product up to the scissile bond Gly178-Thr179; residues 158-178 not visible in the structure; EcAIII of Escherichia coli, β subunit beginning at Thr179, with the substitutions of RDM1-29; source: E. coli BL21 Gold, purified (DEAE-Sepharose, SEC); copies: 2 + 2) chain 1: MGKAVIAIHGGAGAISRAQMSLQQELRYIEALSAIVETGQKMLEAGESALDVVTEAVRLLEECPLFNAGIGAVFTRDETHELDACVMDGNTLKAGAVAGVSHLRNPVLAARLVMEQSPHVMMIGEGAENFAFARGMERVSPEIFSTSLRYEQLLAARKEGATVLDHSGAPLDEKQKMG chain 2: TVGAVALDLDGNLAAATSTGGMTNKLPCSVGLVPLVGAGCYANNASVAVSCTGTGEVFIRALAAYDIAALMDYGGLSLAEACERVVMEKLPALGGSGGLIAIDHEGNVALPFNTEGMYRAWGYAGDTPTTGIYREKGDTVATQ | binds | 
